The values below come from PMC12548415 (2025).

Test [1] deals with wild-type raccoon dog parvovirus strain RDPV/FLD/2010, capsid of VP2 (raccoon dog parvovirus, strain …). The test can be described thus: BLI. (In general: In BLI a coated tip is dipped into the sample, and binding shifts an interference pattern.)
For test [2], the target named is wild-type raccoon dog parvovirus strain RDPV/CL/2016, capsid of VP2 (raccoon dog parvovirus, strain …). In words: BLI.

B1: raccoon dog transferrin receptor ectodomain (recombinant RDTfR, from residue 121, C-terminal 6x His) (receptor)
chain: EEYFPETPSRLFWTDLKTMLSERLSNTDFTNTMRWLNENSYVPREAGSQKDESLALLIENRFREFQLSKSWRDEHFVKIQVKSSNAQNTVTIVGTESGLVYLVENPEGYVAYSKATTVTGRLVHVNFGTKKDFENLKSPVNGSLVIARAGKITFAEKVANAQSYNALGVLIYMDQARFPIVNAQIPFFGHAHLGTGDPYTPGFPSFNHTQFPPSQSSGLPSIPVQTIPRAVAEKLFENMEGDCPSAWEIDPSCRLETSPNKNVKLTVNNVLKEIRIFNIFGVIKGFEEPDRYVVIGAQRDAWGPGAAKSSVGTALLLELARIFSDMVLKGGFKPSRSIVFASWSAGDFGAIGATEWLEGYLSSLHLKAFTYINLDKAILGTSNFKVSASPLLYSLLEKTMKDVKHPITGQSLYRDSNWINKVEKWSLDNAAFPFLAYSGIPAVSFCFCEDTDYPYLGTTMDLYENLNQKIPQLNKMARGAAEVAGQLIIKLTYDLELNLNYEMYNDKILSFVRDMNQFRTDLKEMGLNLQWLYSARGDFFRATSRLTTDYKNAERTNRFVMREINDRIMKVEHNFLSPYVSPRDSPFRHIFWGSGSHTLPALVEHLKLRQKNNSAFNETLLRNQLALATWTIQGAANALSGDIWDIDNEL
Broadly, the koff is the first-order rate constant of dissociation. Read a low koff as slow dissociation. B1: the off-rate (koff) turned out to be 0.0126 s⁻¹ in test [1] and 0.00441 s⁻¹ in test [2].
